The text below walks through data of publication PMC10339645, “Kinetic characterization of annotated glycolytic enzymes present in cellulose-fermenting Clostridium thermocellum suggests different metabolic roles” (Biotechnology for Biofuels and Bioproducts, 2023).

In general, Km refers to the concentration of substrate that gives half-maximal velocity. The Vmax is the top rate of the reaction or transport when substrate is in excess.

Series [1] deals with T1, PfkB (Acetivibrio thermocellus, UniProt A3DCE8).
T1 construct: gene Cthe_0389; N-terminal His6 tag with ~4-kDa linker (pRSET-A, plasmid pAHCT0389), tag kept; codon-optimized, E. coli T7 Shuffle; ~40 kDa monomer
Briefly: coupled NADP+ reduction at […] nm, relative activity. The series is classed as biochemical. The settings on record: inhibitor; GTP as phosphate donor 2.24 mM; fructose 2.24 mM; 55 °C.

Series [2] addresses T1, PfkB. Nature of the series: coupled NADP+ reduction at […] nm, relative activity. The following applies: inhibitor; fructose 2.24 mM, phosphate donor 2.24 mM; 55 °C. The format is biochemical.
For series [3], the target named is T2, PfkA (Acetivibrio thermocellus, UniProt A3DEW4).
T2 construct: N-terminal His6 tag with ~4-kDa linker (pRSET-A, plasmid pAHCT1261), tag kept; codon-optimized, E. coli T7 Shuffle; ~40 kDa monomer
Nature of the series: coupled NADH oxidation at […] nm, relative activity. The series is classed as biochemical. The following applies: inhibitor; GTP as phosphate donor; 2.5 mM MgCl2; NH4Cl; 55 °C.

For series [4], the target named is T2, PfkA. Nature of the series: coupled NADH oxidation at […] nm, relative activity. The series is classed as biochemical. The settings on record: inhibitor; 2 mM F6P, 2 mM ATP or GTP; NH4Cl; 55 °C.
Substrate in series [5]: Nc1nc2c(ncn2[C@@H]2O[C@H](COP(=O)(O)OP(=O)(O)OP(=O)(O)O)[C@@H](O)[C@H]2O)c(=O)[nH]1
Briefly: purified protein. The series is classed as biochemical, Acetivibrio thermocellus.

Substrate in series [6]: Nc1ncnc2c1ncn2[C@@H]1O[C@H](COP(=O)(O)OP(=O)(O)OP(=O)(O)O)[C@@H](O)[C@H]1O
Nature of the series: purified protein. The series is classed as biochemical, Acetivibrio thermocellus.

Setting [7] is: fructose 2 mM constant, 5 mM MgCl2, pH 7.5, 55 °C.
[8] abbreviates: F6P 2 mM constant, 5 mM MgCl2, 2 mM NH4Cl, pH 7.5, 55 °C.
[9] abbreviates: F6P 2 mM constant, 5 mM MgCl2, 2 mM NH4Cl, pH 7.5, 55 °C, extrapolated beyond 2 mM ATP.

Turning to `Nc1ncnc2c1ncn2[C@@H]1O[C@H](COP(=O)(O)O)[C@@H](O)[C@H]1O` [AMP], the “% relative activity at 2.24 mM” value at PfkB [1] is 38%. Still for that read-out and setting: in the case of `Nc1ncnc2c1ncn2[C@@H]1O[C@H](COP(=O)(O)OP(=O)(O)O)[C@@H](O)[C@H]1O` [ADP] it was 38%. As for `OC[C@H]1OC(O)[C@H](O)[C@@H](O)[C@H]1O` (stereo partly shown) [galactose], the “relative activity at 2.24 mM” value at PfkB [2] is given as “Galactose also caused a noticeable decrease in activity”. As to `O=P(O)(O)OP(=O)(O)O` [PPi], at PfkA [3], the “% relative activity at 0.05 mM” value came out at 21%. In the case of `C=C(OP(=O)(O)O)C(=O)O` [PEP], the “relative activity at 2 mM” value on PfkA [4] is given as “addition of PEP or PPi caused a decrease in the activity of PfkA”.

B1: PfkB (Acetivibrio thermocellus ATCC 27405) (protein)
chain: MFDVVAVGELLIDFLPAGTNENGMPLFSSNPGGAPANVLAMLSKLGAKTAFIGKVGKDGFGQFLKATLDNAGIDTSNLLMSSSEMTTLAFVHLNEKGDRSFSFYRKHCADVSLDAGELDKDLLRTCHFLHFGAVSLTDEPSRTATLEAARIAKEAGAIISYDPNYRPALWSNEHEARKYMLKAVEYADLVKVSEEELWLLAESEDFSKGAHKLLAMGPSVVFVTCGEKGSYVFTGSCKANHCGYDVKVVDTTGAGDAFVGAMLWQLRGMSLEEISQICEQKWGELLAFSNAAGTIVATKKGAIPAMPDLDTINTFMRQFLEEK
notes: N-terminal His6 tag with ~4-kDa linker (pRSET-A, plasmid pAHCT0389), tag kept; codon-optimized, E. coli T7 Shuffle; ~40 kDa monomer
For B1, in the series “purified protein [5]” (setting [7]), the Km worked out at 200 ± 80 µM and the Vmax worked out at 124 µmol/min/mg. In addition, in “purified protein [6]” (setting [7]), the Michaelis-Menten constant (Km) stood at 400 ± 100 µM and the Vmax was 110 µmol/min/mg.

B2: PfkA (Acetivibrio thermocellus ATCC 27405) (protein)
chain: MSSVRTIGVLTSGGDAPGMNAAIRSVVRTGLYYGFKVLGIRKGFNGLINGDIEELTARSVGDIIHRGGTILQTARSPQFKTEEGLKKAMSMAKVFGIDALVVIGGDGSYRGARDISKLGLNVIGIPGTIDNDIGCTDYTIGFDTAMNTVQDAIDKIRDTAYSHERCSVLEVMGRHAGYIAVNVSISGGAEAVVLPEKPFDMDTDVIKPIIEGRNRGKKHYLVIVAEGGEGKAIEIAKEITEKTGIEARATILGHIQRGGSPTVYDRVMASQMGAKAVEVLMENKRNRVIVFKDNQIGDMDLEEALQVKKTISEDLIQLSKILAL
notes: N-terminal His6 tag with ~4-kDa linker (pRSET-A, plasmid pAHCT1261), tag kept; codon-optimized, E. coli T7 Shuffle; ~40 kDa monomer
In the case of B2, in “purified protein [5]” (setting [8]), the Km came out at 200 ± 20 µM and the Vmax was determined as 282 µmol/min/mg. Further, in “purified protein [6]” (setting [9]), the Km was 2500 ± 960 µM and the Vmax is 430 µmol/min/mg.
